According to US20230272028:

Experiments:
[1] = target: T1, CTSL1_2 8-mer FRET substrate Mca-ALFFSSPPK-Dnp
T1 chain: ALFFSSPPK

[2] = target: T2, CTSL1_1 FRET substrate (ALFKSSFP)
T2 chain: ALFKSSFP

B1: Cathepsin K (CTSK) (protein)
chain: APDSVDYRKKGYVTPVKNQGQCGSCWAFSSVGALEGQLKKKTGKLLNLSPQNLVDCVSENDGCGGGYMTNAFQYVQKNRGIDSEDAYPYVGQEESCMYNPTGKAAKCRGYREIPEGNEKALKRAVARVGPVSVAIDASLTSFQFYSKGVYYDESCNSDNLNHAVLAVGYGIQKGNKHWIIKNSWGENWGNKGYILMARNKNNACGIANLASFPKM
[1]
  FRET substrate cleavage, specific activity: measurably cleaved by CTSK but at a 15× lower level than the CTSL1_1 substrate
[2]
  FRET substrate cleavage, specific activity: measurably cleaved by CTSK but at a 15× lower level than the CTSL1_1 substrate
